Assays:
Test in all cases: holdup assay
Design in all cases: key: below the threshold = too weak to quantify, mostly under pKd 3.1 to 4
Conditions in all cases: plain residues with an end cap or a label only (N-terminal biotin on a linker: ado-ado)
[1] = target: GORASP2, Q9H8Y8
[2] = target: FRMPD2_1, Q68DX3
[3] = target: Inadl_1, Q8NI35
[4] = target: IL16_1, Q14005
[5] = target: Inadl_4, Q8NI35
[6] = target: T1, MPDZ_5, O75970
T1 sequence (O75970 695-796, limits assumed, looked up): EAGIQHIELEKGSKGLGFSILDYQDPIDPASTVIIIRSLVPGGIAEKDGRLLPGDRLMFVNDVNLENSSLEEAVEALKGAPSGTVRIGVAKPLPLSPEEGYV

[7] = target: GORASP1, Q9BQQ3
Chain of GORASP1, Q9BQQ3 (Q9BQQ3 1-208): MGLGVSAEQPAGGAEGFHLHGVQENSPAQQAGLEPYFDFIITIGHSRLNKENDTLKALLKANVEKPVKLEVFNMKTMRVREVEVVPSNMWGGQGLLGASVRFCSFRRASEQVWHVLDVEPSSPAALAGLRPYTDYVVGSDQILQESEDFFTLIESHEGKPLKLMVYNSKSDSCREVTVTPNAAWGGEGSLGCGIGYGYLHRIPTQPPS

[8] = target: T2, SNTB1, Q13884
T2 sequence (Q13884 107-205, limits assumed, looked up): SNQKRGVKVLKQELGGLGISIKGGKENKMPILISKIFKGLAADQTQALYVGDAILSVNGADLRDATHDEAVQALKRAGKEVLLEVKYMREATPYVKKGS

[9] = target: T3, PDZRN3_1, Q9UPQ7
T3 sequence (Q9UPQ7 244-349, limits assumed, looked up): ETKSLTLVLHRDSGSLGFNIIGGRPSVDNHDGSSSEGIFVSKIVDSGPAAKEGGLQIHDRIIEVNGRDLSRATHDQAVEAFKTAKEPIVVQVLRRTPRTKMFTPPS

[10] = target: SCRIB_1, Q14160
Chain of SCRIB_1, Q14160 (Q14160 718-814): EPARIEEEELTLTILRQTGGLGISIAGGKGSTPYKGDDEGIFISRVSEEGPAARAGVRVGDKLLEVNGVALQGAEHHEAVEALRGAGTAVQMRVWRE

[11] = target: TJP1_2, Q07157
Chain of TJP1_2, Q07157 (Q07157 181-274): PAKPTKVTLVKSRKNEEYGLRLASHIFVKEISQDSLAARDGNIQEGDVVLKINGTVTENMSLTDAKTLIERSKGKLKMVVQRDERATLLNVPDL

[12] = target: T4, MPDZ_10, O75970
T4 sequence (O75970 1624-1722, limits assumed, looked up): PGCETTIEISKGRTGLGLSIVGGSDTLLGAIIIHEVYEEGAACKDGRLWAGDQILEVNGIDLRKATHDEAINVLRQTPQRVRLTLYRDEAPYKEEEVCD

[13] = target: T5, MPP7, Q5T2T1
T5 sequence (Q5T2T1 134-230, limits assumed, looked up): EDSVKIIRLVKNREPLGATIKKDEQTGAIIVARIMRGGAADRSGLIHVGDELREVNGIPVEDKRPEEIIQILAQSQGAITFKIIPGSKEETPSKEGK

[14] = target: NHERF4_1, Q86UT5-2
Chain of NHERF4_1, Q86UT5-2 (Q86UT5 other isoform, or with tags, fused parts or gaps): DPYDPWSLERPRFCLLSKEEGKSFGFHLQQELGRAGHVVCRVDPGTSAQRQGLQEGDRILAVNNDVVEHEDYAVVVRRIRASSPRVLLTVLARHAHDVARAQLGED

[15] = target: GRIP2_6, Q9C0E4
Chain of GRIP2_6, Q9C0E4 (Q9C0E4 648-740): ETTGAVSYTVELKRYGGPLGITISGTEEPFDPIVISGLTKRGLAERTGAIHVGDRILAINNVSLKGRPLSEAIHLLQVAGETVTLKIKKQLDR

[16] = target: T6, DVL3, Q92997
T6 sequence (Q92997 244-331, limits assumed, looked up): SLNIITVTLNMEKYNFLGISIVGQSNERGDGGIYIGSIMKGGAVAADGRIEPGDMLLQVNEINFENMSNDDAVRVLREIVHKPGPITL

[17] = target: T7, RHPN1, Q8TCX5
T7 sequence (Q8TCX5 508-602, limits assumed, looked up): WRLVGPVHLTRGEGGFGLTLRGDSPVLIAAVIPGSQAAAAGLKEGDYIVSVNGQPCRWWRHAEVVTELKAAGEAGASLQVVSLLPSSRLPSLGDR

[18] = target: Inadl_3, Q8NI35
Chain of Inadl_3, Q8NI35 (Q8NI35 359-469): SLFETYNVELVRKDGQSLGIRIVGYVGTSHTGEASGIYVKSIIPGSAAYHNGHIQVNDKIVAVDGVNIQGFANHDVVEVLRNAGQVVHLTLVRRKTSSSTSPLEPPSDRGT

[19] = target: T8, DFNB31_1, Q9P202
T8 sequence (Q9P202 135-233, limits assumed, looked up): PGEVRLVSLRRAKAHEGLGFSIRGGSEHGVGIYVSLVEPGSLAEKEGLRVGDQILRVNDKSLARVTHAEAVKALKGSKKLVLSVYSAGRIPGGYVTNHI

[20] = target: NHERF4_4, Q86UT5
Chain of NHERF4_4, Q86UT5 (Q86UT5 464-550): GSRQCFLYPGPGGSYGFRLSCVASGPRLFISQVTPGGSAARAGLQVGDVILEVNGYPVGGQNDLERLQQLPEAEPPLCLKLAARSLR

[21] = target: T9, DLG3_3, Q92796
T9 sequence (Q92796 374-475, limits assumed, looked up): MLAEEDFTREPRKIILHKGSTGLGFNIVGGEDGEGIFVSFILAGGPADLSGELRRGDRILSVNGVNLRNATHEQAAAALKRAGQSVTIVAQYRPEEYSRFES

[22] = target: DLG2_2, Q15700
Chain of DLG2_2, Q15700 (Q15700 189-283): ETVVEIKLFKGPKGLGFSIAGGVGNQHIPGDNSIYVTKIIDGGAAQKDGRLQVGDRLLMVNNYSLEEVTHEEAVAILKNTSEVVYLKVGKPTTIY

[23] = target: T10, APBA3_1, O96018
T10 sequence (O96018 389-490, limits assumed, looked up): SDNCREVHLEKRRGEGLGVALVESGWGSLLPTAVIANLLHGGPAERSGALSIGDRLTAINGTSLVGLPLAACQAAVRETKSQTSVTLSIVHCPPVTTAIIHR

[24] = target: SCRIB_3, Q14160
Chain of SCRIB_3, Q14160 (Q14160 999-1103): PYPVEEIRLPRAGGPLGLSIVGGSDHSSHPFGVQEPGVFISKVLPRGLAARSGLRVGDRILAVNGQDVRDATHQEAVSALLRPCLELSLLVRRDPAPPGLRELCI

[25] = target: PDLIM1, O00151
Chain of PDLIM1, O00151 (O00151 1-87): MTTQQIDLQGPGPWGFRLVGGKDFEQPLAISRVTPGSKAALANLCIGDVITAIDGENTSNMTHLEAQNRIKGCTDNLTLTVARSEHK

[26] = target: T11, LRRC7, Q96NW7
T11 sequence (Q96NW7 1440-1537, limits assumed, looked up): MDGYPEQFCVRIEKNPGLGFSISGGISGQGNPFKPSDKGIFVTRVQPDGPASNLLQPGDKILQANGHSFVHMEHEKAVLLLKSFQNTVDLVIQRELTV

Measured: pKd

Chain of IL16_1, Q14005 (Q14005 210-306): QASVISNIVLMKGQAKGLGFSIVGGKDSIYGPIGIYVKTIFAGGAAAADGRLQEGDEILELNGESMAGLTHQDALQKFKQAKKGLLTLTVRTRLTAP
Chain of Inadl_1, Q8NI35 (Q8NI35 113-229): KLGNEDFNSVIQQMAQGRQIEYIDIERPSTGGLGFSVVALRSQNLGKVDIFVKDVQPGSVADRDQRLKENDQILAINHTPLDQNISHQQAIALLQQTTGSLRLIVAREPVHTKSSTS
Chain of FRMPD2_1, Q68DX3 (Q68DX3 770-861): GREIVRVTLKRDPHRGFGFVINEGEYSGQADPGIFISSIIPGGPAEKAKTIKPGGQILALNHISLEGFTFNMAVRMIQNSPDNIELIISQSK
Chain of Inadl_4, Q8NI35 (Q8NI35 547-651): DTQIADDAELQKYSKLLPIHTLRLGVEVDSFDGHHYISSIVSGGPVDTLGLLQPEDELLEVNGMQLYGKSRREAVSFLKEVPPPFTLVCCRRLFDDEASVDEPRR

B1: MMP24, Q9Y5R2 (peptide)
chain: YYKRPVQEWV
3.47: [14]
3.48: [4]
4.1: [11]
4.03: [6] | [26]
3.85: [2]
4.9: [7]
3.62: [22]
3.52: [24]
5.44: [1]
4.38: [16]
below the threshold: all other assays above

B2: KIF17, Q9P2E2 (peptide)
chain: SKSNFGSEPL
4.21: [14]
below the threshold: all other assays above

B3: NLGN4X, Q8N0W4 (peptide)
chain: LPHGHSTTRV
4.27: [8] | [21]
3.99: [1]
3.83: [12]
3.76: [7] | [14]
4.06: [19]
4.04: [17]
3.78: [9]
3.74: [22]
below the threshold: all other assays above

B4: MYOZ3, Q8TDC0 (peptide)
chain: VRNLPESEEL
4.3: [14]
3.85: [20]
5.23: [25]
below the threshold: all other assays above

B5: SLC22A12, Q96S37 (peptide)
chain: GNSVLKSTQF
4.1: [14]
3.6: [19]
below the threshold: all other assays above
